Key:
[1] = target: T1, 人全长重组tau(2N4R) (human, UniProt P10636 2-758); test: SPR, Biacore T200, 25 °C, mAb captured by anti-Fc on a CM4 chip, tau as analyte, 1:1 Langmuir fit
T1 construct: also called human full-length recombinant tau; 全长重组Tau蛋白

[2] = target: T1, 人全长重组tau(2N4R); test: SPR, single-cycle kinetics

T1 sequence (P10636 other isoform, or with tags, fused parts or gaps limits assumed): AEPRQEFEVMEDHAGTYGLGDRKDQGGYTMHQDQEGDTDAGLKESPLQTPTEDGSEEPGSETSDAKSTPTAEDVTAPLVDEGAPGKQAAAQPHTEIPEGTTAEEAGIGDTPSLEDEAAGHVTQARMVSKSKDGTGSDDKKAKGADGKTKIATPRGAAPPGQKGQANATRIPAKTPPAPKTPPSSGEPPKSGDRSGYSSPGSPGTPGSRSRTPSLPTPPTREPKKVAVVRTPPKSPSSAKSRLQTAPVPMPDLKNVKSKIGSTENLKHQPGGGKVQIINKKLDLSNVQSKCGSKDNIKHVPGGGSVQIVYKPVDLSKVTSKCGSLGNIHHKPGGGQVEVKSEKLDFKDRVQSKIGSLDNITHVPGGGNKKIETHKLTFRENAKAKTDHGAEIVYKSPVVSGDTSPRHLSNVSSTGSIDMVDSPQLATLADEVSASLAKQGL

| Binder | binding result [1] | binding result [2] |
| --- | --- | --- |
| PT1B545 (antibody, mouse IgG2a, kappa, V domains shown, Parental mouse mAb; also called PT/66; 亲本mAb PT/66) VH: QVQLQQPGAELVKPGASVKMSCKASGYTFTSYWITWVKQRPGQGLEWIGDIHPGRGSTKSNEKFKSKATLTVDTSSSTAYMQFSSLTSEDSAVYYCARRWGFDYWGQGTTLTVSS VL: DIVITQDELSNPVTSGESVSISCRSSKSLLYKDGKTYLNWFLQRPGQSPQLLIYLMSTRASGVSDRFSGSGSGTDFTLEISRVKAEDVGVYYCQQLVDYPLTFGAGTKLELKR | binds | – |
| PT1B1183 (antibody, human IgG1, kappa, V domains shown, Humanised antibody obtained from PT1B1153 by modifying framework region 2 of the light chain) VH: QVQLVQSGAEVKKPGASVKVSCKASGYTFTSYWITWVRQRPGQGLEWMGDIHPGRGSTKYAQKLQGRVTMTTDTSTSTAYMELRSLRSDDTAVYYCARRWGFDYWGQGTLVTVSS VL: DIVMTQTPLSSPVTLGQPASISCRSSKSLLYKDGKTYLNWFQQRPGQSPRLLIYLMSTRASGVPDRFSGSGAGTDFTLKISRVEAEDVGVYYCQQLVDYPLTFGQGTKLEIKR | – | binds |

— patent CN117083298A (CENTOCOR ORTHO BIOTECH INC, dated 2023)
